Target: the molecule itself
Test: cross-linking; glutaraldehyde-mediated cross-linking of rSarA (10 uM) in buffer B [20 mM phosphate buffer (pH 8.0), 100 mM NaCl, 5% glycerol] or buffer C (buffer B with 0.7 mM TX-100); analysed by SDS-13.5% PAGE

B1: recombinant S. aureus SarA (rSarA) (natural protein)
chain: MAITKINDCFELLSMVTYADKLKSLIKKEFSISFEEFAVLTYISENKEKEYYLKDIINHLNYKQPQVVKAVKILSQEDYFDKKRNEHDERTVLILVNAQQRKKIESLLSRVNKRITEANNEIEL
notes: source: purified as described [8]
stoichiometry N: 2
